The source of these data is patent publication US5234903A, “Chemically modified hemoglobin as an effective, stable non-immunogenic red blood cell substitute” (Enzon, Inc., priority 1990, dated 1993).

Several values for one entry are separate records, joined by “and”; a condition that tells them apart may be missing. Equal values may be shown once. Read-outs that look alike come from different tables or passages of the source. A value given as a limit tells only on which side of the number the result lay.

The conditions of data set [1]: in vivo; cited from earlier work.
Data set [2] can be described thus: Oxygen binding: P50 (partial pressure of oxygen at 50% saturation) and Hill coefficient. Particulars: Examples I-V and control. The protocol:
Hemoglobin constitutes about 90% of the total protein in red blood cells. 100 ml of whole blood is capable of absorbing approximately 21 ml of gaseous oxygen due to the binding ability of hemoglobin. Equally important to the binding of oxygen, hemoglobin is also efficient in releasing the bound oxygen to tissues. The ability of hemoglobin to bind and release oxygen is often quantitatively expressed as the P50, the partial pressure of oxygen which results in fifty percent saturation of hemoglobin.
The resulting modified hemoglobin may then be tested to determine its P50 value so as to confirm that a clinically useful P50 has been achieved. Methods of P50 measurement include standard methods of analysis, such as, for example, methods utilizing the Hemox-Analyzer (TCS Medical Products Co., Huntingdon Valley, Pa.).
Following reduction, the hemoglobin may be reacted with an activated polyalkylene oxide under conditions which maintain the structural integrity of the oxygen binding site. In preferred embodiments of the invention, such conditions consist of a high anion concentration; in a specific embodiment this anion is chloride ion. In preferred embodiments, the chloride ion concentration is at least about 1.0M. […] According to the invention, the activated polyalkylene oxide may have one or more than one functional groups. The degree of modification for each preparation referred to in Table I is approximately 20 percent. This percent modification corresponds to about […] PEG molecules per each molecule of hemoglobin. The percent modification may be calculated according to the number of lysines modified by PEG and is based on a total of 48 surface lysines in bovine hemoglobin. The number may be determined by trinitrobenzene sulfonic acid (TNBS) assay (Habeef et al., 1966, Analyt. Biochem. 14:328-336).
(§1) The polyalkylene oxide modified hemoglobin may then be chemically characterized using methods known in the art. For example, the oxygen dissociation curve may be determined using standard techniques (for example, Imai et al., 1970, Biochim. Biophys. Acta 200: 189-196) allowing calculation of the P50 value. Additional parameters which would be desirable to measure include the methemoglobin content, the viscosity, the osmolality, the pH, and the Hill constant; the effects of changes in pH on the oxygen saturation curve may be determined as described in Bartels (1971, Blood oxygen dissociation curves: Mammals. in "Respiration and Circulation", Altman and Dittmer, Eds., Federation of American Societies for Experimental Biology, Bethesda).
Purification was carried out using a hollow-fiber ultrafiltration device with M.W. cutoff of 50 kD that is commercially available from American Fluid, Richboro, Pa. The advantage of this device relative to conventional tangential flat ultrafiltration membranes is its easy handling of viscous protein solutions such as the 6% PEG-Hb solution. Following purification, the P50 of the PEG-Hb was determined by a Hemox-Analyzer (TCS Medical Products Co., Huntington Valley, Pa.).

Data set [3] can be described thus: Viscosity and colloid osmotic pressure of PEG-Hb solutions. In kind it is physicochemical.
Source text: as §1

A short description of data set [4]: Half-life and intravascular Met-Hb in rats after 70 percent exchange transfusion. Format: in vivo. From the text:
Blood circulating time of polyalkylene oxide-modified Hb may, for example, and not by way of limitation, be evaluated by monitoring the concentration of hemoglobin in the plasma fraction (at 540 nm) of blood samples sequentially collected following exchange transfusion with modified Hb. Hemoglobin disappearance may be plotted as a function of time.

The test system of a further data set is rats. Put plainly: Blood pressure, heart rate and breathing in rats after 70 percent exchange transfusion. Format: in vivo. Particulars: 70% exchange transfusion. From the text:
Acute toxicity studies may be performed in any suitable experimental animal. Preferably, a range of exposures may be tested; for example, by evaluating animals that have received a 50 or 70 percent exchange transfusion as compared to animals that have received a 100 percent exchange transfusion. Vital signs and visual observations should be recorded, and the animals may be sacrificed after a period of time estimated to correspond to one half-life of the hemoglobin formulation being tested. Histological evaluation using standard techniques may be used to determine the presence or absence of toxic effects on tissues including lung, kidney, liver, or brain.
The results of in vivo studies, in which rats were given a 70 percent exchange transfusion of hemoglobin prepared according to Examples I-V or control (native bovine hemoglobin) are shown in Table V (bracketed numbers are values obtained in rats that were not transfused). Note that the breathing rate decreased slightly, and the blood pressure increased by at most about 30-35 percent relative to control, showing a good physiologic response to the exchange transfusion.

Data set [5] in a line: Methemoglobin content of PEG-Hb preparations. Format: physicochemical. Conditions: in preparation.
Source text: as §1

Data set [6] can be described thus: Free iron by ferrozine assay. Particulars: in preparation. In kind it is physicochemical. From the text: The P50 of the above PEG-bHb was 29mm Hg (Table IV). […] Half-life of this example injected into rats after a 70 percent exchange transfusion was approximately nine hours (Table IV).
The conditions of data set [7]: in words; cited from earlier work.

For “U.S. Pat. No. 4,529,719: stroma-free hemoglobin cross-linked with a bis-diaspirin ester, reacted with pyridoxal phosphate”, the Half-life entry in data set [1] is “approximately 20 hours”.

For “Example V: polymerized bovine hemoglobin modified first by BSC-PEG (MW 4600) 2:1, then SC-PEG (MW 5000) 10:1”, in [2], the “Hill coeff.” value came to 2.2. For the same substance, the Endotoxin entry in the data set “Endotoxin (LAL test)” is recorded as “< .1 EU”. The endotoxins result in the data set “Endotoxin (LAL test)” (LAL test, in words) is on record as “free of endotoxins”. Also, in [3], the “Osmotic Press.” value was found to be 20 mmHg, the Viscosity amounted to 4.0 cp and the colloid osmolality amounted to 22 mm Hg. In data set [4] (rats, 70% exchange transfusion), the Half-life is 19 h and 18.8 h; the “Met-Hb at Half-life” value turned out to be 12.0%. Moreover, in [4] (rats, 70 percent exchange transfusion), the “intravascular Met-bHb formation” value is reported as 12%. Also, in the data set with rats, the Breathing was 90 min⁻¹, the “Heart Rate” value came to 423 min⁻¹ and the “Mean Arterial Press.” value came out at 97 mmHg. This substance showed a MetHb in data set [5] of 2%.

For the substance “CONTROL: control (native bovine hemoglobin) [reference compound]”, the “Hill coeff.” value in data set [2] was 2.4. In addition, the “Free Iron” value in [6] turned out to be 24 µg/dL. For the same substance, the Endotoxin entry in the data set “Endotoxin (LAL test)” is listed as “< .1 EU”. For the same substance, in data set [3], the “Osmotic Press.” value was determined as 22 mmHg and the Viscosity is reported as 3.0 cp. In [4] (rats, 70% exchange transfusion), the Half-life was 1.5 h and the “Met-Hb at Half-life” value amounted to 16.5%. Besides, in the data set on rats, the Breathing came to 100 min⁻¹, the “Heart Rate” value was determined as 304 min⁻¹ and the “Mean Arterial Press.” value is 90 mmHg. Further, the MetHb in [5] was < 5%.

Consider “Example I: bovine hemoglobin reduced with cysteine, modified with SC-PEG (MW 5000) at a molar ratio of 20:1”, for which the “Hill coeff.” value in [2] was 2.58. Further, in “Endotoxin (LAL test)”, the Endotoxin result was “< .1 EU” and the endotoxins result was “free of endotoxins”. Besides, in [3], the “Osmotic Press.” value turned out to be 24 mmHg, the Viscosity came to 3.6 cp and the colloid osmolality is recorded as 24 mm Hg. In data set [4] (rat, in vivo), the “Formation of Met-bHb in rat intravasculature” value was “substantially lower than that of unmodified hemoglobin” and the “Met-Hb at Half-life” value amounted to 29.3%. For the same substance, in [4] (rat, in vivo, iv), the Half-life is 8.9 h. Moreover, in the data set with rats, the Breathing stood at 117 min⁻¹, the “Heart Rate” value amounted to 392 min⁻¹ and the “Mean Arterial Press.” value worked out at 102 mmHg. The substance further had a MetHb in data set [5] of 6%.

Take “Example III: bovine hemoglobin conjugated with SC-PEG (MW 3000) at a molar ratio of 30:1”: in data set [2], the “Hill coeff.” value was 2.05 and the p50 is 25 mmHg. In data set [6], the “Free Iron” value came out at 20 µg/dL. In addition, in the data set “Endotoxin (LAL test)”, the Endotoxin entry is on record as “< .1 EU”. Moreover, in data set [3], the “Osmotic Press.” value came to 22 mmHg and the Viscosity is 3.8 cp. Further, in data set [4] (rats, 70% exchange transfusion), the Half-life was determined as 12.4 h and the “Met-Hb at Half-life” value is on record as 13.8%. Also, in the data set on rats, the Breathing stood at 79 min⁻¹, the “Heart Rate” value worked out at 408 min⁻¹ and the “Mean Arterial Press.” value is 132 mmHg. Moreover, in data set [5], the MetHb is recorded as < 5%.

“Example IV: bovine hemoglobin modified with SC-PEG (MW 2000) at a molar ratio of 40:1”: in data set [2], the “Hill coeff.” value is 1.8 and the p50 worked out at 20 mmHg. Besides, in data set [6], the “Free Iron” value amounted to 20 µg/dL. In “Endotoxin (LAL test)”, the Endotoxin entry was “< .1 EU”. Further, in [3], the “Osmotic Press.” value was 22 mmHg and the Viscosity was 3.2 cp. In [4] (rats, 70% exchange transfusion), the Half-life amounted to 13.0 h and the “Met-Hb at Half-life” value worked out at 18.0%. Moreover, in the data set on rats, the Breathing came to 83 min⁻¹, the “Heart Rate” value turned out to be 432 min⁻¹ and the “Mean Arterial Press.” value amounted to 129 mmHg. In [5], the MetHb is given as < 5%.

For the substance “Example II: bovine hemoglobin deoxygenated through gas permeable membrane, conjugated to SC-PEG (5000)”, in data set [2], the “Hill coeff.” value came to 2.2 and the p50 is recorded as 24 mmHg. Also, the “Free Iron” value in data set [6] is 27 µg/dL. Moreover, the Endotoxin entry in the data set “Endotoxin (LAL test)” is listed as “< .1 EU”. Besides, in [3], the “Osmotic Press.” value was 22 mmHg and the Viscosity is 4.5 cp. Besides, in data set [4] (rats, 70% exchange transfusion), the Half-life was 9.6 h and the “Met-Hb at Half-life” value is 5.8%. Also, in the data set with rats, the Breathing came out at 104 min⁻¹, the “Heart Rate” value was 408 min⁻¹ and the “Mean Arterial Press.” value is listed as 119 mmHg. Also, in [5], the MetHb is < 5%.

Regarding “Stroma-free hemoglobin: stroma-free hemoglobin, taken out of the red blood cell microenvironment”, the transfusion half-life entry in data set [1] is “about 100 minutes”. In addition, the “P50 / oxygen binding of stroma-free hemoglobin” value in [7] is “bind oxygen too tightly (a low P50)”.
